Measurements reported in PMC4519933, “Crystal Structure of a Hidden Protein, YcaC, a Putative Cysteine Hydrolase from Pseudomonas aeruginosa, with and without an Acrylamide Adduct” (International Journal of Molecular Sciences, 2015).

B1: Pseudomonas aeruginosa YcaC, crystal form I (Cys118 linked to propanamide) (enzyme, P. aeruginosa (endogenous in PADD1976), UniProt Q9I4D6 2-205, looked up)
chain: SFTYKRLDKNDAAVLFVDHQAGLLSLVRDFSPDEFKNNVLALADIARFFNLPTILTTSFEDGPNGPLVPELKEMFPQAPYIARPGNINAWDNEDFVKAVKATGKKQLIIAGVVTDVCVAFPTLSALEEGFDVFVVTDASGTFNPVVRDAAWARMTAAGAQLMNWFSVGCELHRDWRNDIEGFGAILGGHLPAYANLIQSFGTKK
modifications: Cys118 linked to a propanamide (acrylamide adduct); bacteria grown in minimal media with L-selenomethionine (SeMet)
notes: monomer 205 residues, 22.5 kDa; the N-formylmethionine appears to have been cleaved off; residues 204 and 205 disordered in the crystal; Not cloned: crystallised as a contaminant of a SeMet PlcHR2 preparation; identity found by molecular replacement and side chain densities; also called Pa YcaC; PA1202
B2: Pseudomonas aeruginosa YcaC, crystal form II (Cys118 as S-mercaptocysteine) (enzyme, P. aeruginosa (endogenous in PADD1976), UniProt Q9I4D6 2-205, looked up)
chain: SFTYKRLDKNDAAVLFVDHQAGLLSLVRDFSPDEFKNNVLALADIARFFNLPTILTTSFEDGPNGPLVPELKEMFPQAPYIARPGNINAWDNEDFVKAVKATGKKQLIIAGVVTDVCVAFPTLSALEEGFDVFVVTDASGTFNPVVRDAAWARMTAAGAQLMNWFSVGCELHRDWRNDIEGFGAILGGHLPAYANLIQSFGTKK
modifications: Cys118 covalently modified to S-mercaptocysteine; bacteria grown in minimal media with L-selenomethionine (SeMet)
notes: monomer 205 residues, 22.5 kDa; the N-formylmethionine appears to have been cleaved off; residues 204 and 205 disordered in the crystal; Same protein and preparation route as m1; differs in the modification of Cys118 seen in the crystal; also called Pa YcaC; PA1202

Assays:
[1] = target: the molecule itself; assay: crystal structure; crystal form I, space group C2, 2.34 Å; 9 mg/mL SeMet PlcHR2 preparation in 50 mM NaCl, 50 mM Tris-HCl pH 7.4, 0.1 mM TCEP; reservoir 26% PEG 3350, 400 mM (NH4)2SO4, 70 mM bis-Tris-HCl pH 6.75, 2,5-hexanediol additive; eight chains in the asymmetric unit
[2] = target: the molecule itself; assay: crystal structure; crystal form II, space group P21, 2.56 Å; 5.3 mg/mL SeMet PlcHR2 preparation in 50 mM NaCl, 5 mM MgCl2, 50 mM Tris-HCl pH 7.4, 0.1 mM TCEP; reservoir 20% PEG 3350, 200 mM Na malonate, 100 mM MES-NaOH pH 6.75; eight chains in the asymmetric unit

| Protein | stoichiometry N [1] | stoichiometry N [2] |
| --- | --- | --- |
| B1 | 8 | – |
| B2 | – | 8 |
